# The nanobody polyreactivity screen of Harvey et al. (2022)
# Assay: yeast display, Sf9 membrane polyspecificity reagent, FACS + sequencing; frameworks hold sequencing errors
# Summary of the method: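 Using colony PCR, genes from sorted yeast display clones were amplified, then sequenced on MiSeq at 2 × 250 and filtered by CDR length. The clones had been stained with 10% biotinylated, detergent-solubilized Sf9 membrane reagent for 1 hour at 4 °C and sorted by FACS into low and high (top ~1%) gates on anti-HA and streptavidin fluorescence. Polyreactivity labels come from the gate of origin.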
row,Sequence,polyreactivity (PSR sort gate)
1,QVQLVESGGGLVQAGGSLRLSCAASGRTIHFNTMGWYRQAPGKERELVAAIRWGGNTYYADSVKGRFTISRDNAKNTVYLQKNSLKPEDTAVYYCAADRWYYFLMYYWGQGTQVTVSS,low polyreactivity
2,QVQLVESGGGLVQAGGSLRLSCAASGRTIKKYAMGWDRQAPGQEREFVAAITGSGGSTYYADSVKGRFTISRDNAKNTVYLQMNSLKPEDTAVYYCAAYAYGVWHSQDGGNYWGKGTQVTVSS,low polyreactivity
3,QVQLVESGGGLVQAGGSLRLSCAASGRTIKRYAMGWYRQAPGKERELVATISRSGSSTYYADSVKGRFTISRDNAKNTVYLQMNSLIPEDTAVYYCNAYVPDIWVNGYDSWGQGTQVTVSS,high polyreactivity
4,QVQLVESGGGLVQAGGSLRLSCAASGRTIKSNDMGWYRQAPGKERELVSAISRRGGSTYYADSVKGRFTISRDNAKNTVYLQMNSLKPEDTAVYYCAADLTFSYRQSAGRYSTYGYWGQGTQVTVSS,high polyreactivity
5,QVQLVESGGGLVQAGGSLRLSCAASGRTINRYAMGWYRQAPGKERELVAAISTSGGTTYYADSVKGRFTISRDNAKNTVYLQMNSLKPEDTAVYYCNARALAYWGQGTQVTVSS,high polyreactivity
6,QVQLVESGGGLVQAGGSLRLSCAASGRTINRYDMGWYRQAPGKERELVAAISTSGGTTYYADSVKGRFTISRDNAKNTVYLQMNSLKPEDTAVYYCNARALAYWGQGTKVTVSS,high polyreactivity
7,QVQLVESGGGLVQAGGSLRLSCAASGRTIPIYAMGWYRQEPGKERYLVAAITYSGGSTYYADSVKGRFTISRDNAKNSVYLQMNSLKPEDTAVYYCAVDGTKPYWHQRYVYWGQGTQVTVSS,low polyreactivity
8,QVQLVESGGGLVQAGGSLRLSCAASGRTIQYYTMGWYRQAPGKERELVAGITYRGSSTYYADSVKGRFTISRDNAKNTVYLQMNSLKPEDTAVYYCAAGYWAYVWYYYWGQGTQVTVSS,high polyreactivity
9,QVQLVESGGGLVQAGGSLRLSCAASGRTIRGYTMGWYRQAPGKERELVATITKRGGSTTYADSVKGRFTISRDNAKNTVYLQMNSLKPEDTAVYYCNKDTITSTWTPYTSWFGYWGQGTQVTVSS,high polyreactivity
10,QVQLVESGGGLVQAGGSLRLSCAASGRTIRLYGMGSYRQAPGKERELVAAITWSGGRTYYADSVKGRFTISRDNEKNTFYLQMNSLKPEDSAVYYCAAGNSSYGKPKYYYWGQGTQVTVSS,high polyreactivity
11,QVQLVESGGGLVQAGGSLRLSCAASGRTIRSYAMGRSRQAPGKEREWVAAISWSGGRTYYADSVKGRFTISRDNAKYTVYLQMTSLKPEDTADYYCAARVSVGVPRYEYWGQGTQVTVSA,high polyreactivity
12,QVQLVESGGGLVQAGGSLRLSCAASGRTISHNVMGWYIKAPGKERELVAAISRNGGRTYYADSVKGRFTISRDNAKNTVYLQMNSLKPEDTAVYYCAKRRSYFLHSYYSYGYWGQGTQVTVSS,high polyreactivity
13,QVQLVESGGGLVQAGGSLRLSCAASGRTISINAMGWYRQAPGKERELVADISKSGGRTYYADSVKGRFTISRDNAKNTVYLQMNSLKPEDTAVYYCAKGAYYVPVIYHAVYSWGQGTQVTVSS,low polyreactivity
14,QVQLVESGGGLVQAGGSLRLSCAASGRTISRYAMGWYRQAPGKERELVATITSGGSTNYADSVKGRFTISRDNAKNTLYLQMNSLKPEDTAVYYCNAQSWYIVPYDYWGQGTQVTVSS,low polyreactivity
15,QVQLVESGGGLVQAGGSLRLSCAASGRTISYAMGWYRQAPGKERELVAAIRYRGGSTYYADSVKGRFTISRDNAKNTVYLQMNSQKPEDTAVYYCAAQDSYTPPILFRRGYLRYDYWGQGTQVTVSS,low polyreactivity
16,QVQLVESGGGLVQAGGSLRLSCAASGRTIVIYAMGWYRQAPGKERELVAAIRSGGRTNYADSVKVRFTISRDNAKNTVYLQMNSLIPEDTAVYYCATRGWLRSGYDYWGQGTQVTVSS,high polyreactivity

row,Sequence,polyreactivity (PSR sort gate)
1,QVQLVESGGGLVQAGGSLRLSCAASGRTIWRYAMGWYRKAPGKERELVAAISWSGTSTYYADSVKGRFTISRDNAKNTVYLQMNSLKPEDTAVYYCAVAYPFYGKTLFSPQADYNYWGQGTQVTVSS,high polyreactivity
2,QVQLVESGGGLVQAGGSLRLSCAASGRTIWTYVMGWYRQAPGKERELVAAISRSGSSTYYADSVKGRFTISRDNAKNTVYLQMNSLKPEDTAVYYCNKVDGTTLDDHYMDYWGQGTQVTVSS,low polyreactivity
3,QVQLVESGGGLVQAGGSLRLSCAASGRTIYQYAMGWYRQAPGKERELVAAISRGGSTNYADSLKGRFTISRDNAKNTVYLQMNSLKPEDTAVYYCASWYKFLSLKRLYERDYWGQGTQVTVSS,high polyreactivity
4,QVQLVESGGGLVQAGGSLRLSCAASGRTIYRYDMGWYRQSPGKERKFVAPISWSGGRTYYADSVKGRFTIARDNAKNTVYLQMNSLKPEDTAVYYCAAEYPWSVGYWRYGLDDYWGQGTQVSVSS,high polyreactivity
5,QVQLVESGGGLVQAGGSLRLSCAASGRTIYSYAMVLNTQAPGKERELVAAISRRGGSTYYADSVKGRFTISRDNAKNTVYLQLNSLIPEDTAVYYCAKRYTPLPYKGIWYYYWGQGTQVTVSS,high polyreactivity
6,QVQLVESGGGLVQAGGSLRLSCAASGRTLAHYTMGWYRQAPGKERELVAAITFSGGRTYYAHSVKGRFTISRDNAKNTVYLQMNSLKPEDTAVYYCAAPGRCYYRGDDYWGQGTQVTVSS,low polyreactivity
7,QVQLVESGGGLVQAGGSLRLSCAASGRTLARNAMGWYRQAPGKERELVAGITSGGSTDYADSVKGRFTISRDNAKNTVYLQMNSLKPEDTAVYYCNRDAGPGGDYWGQGTQVTVSS,low polyreactivity
8,QVQLVESGGGLVQAGGSLRLSCAASGRTLASNAMGWFRQSPGKERELVAAINRGGSTYYADSVKGRFTISRDNAMNTVYLQMNSLKPEDTAVYYCAVDRYRYPFDYWGQGTQVTVSS,low polyreactivity
9,QVQLVESGGGLVQAGGSLRLSCAASGRTLDYNAMGLYRQAPGKERELVAAISWTGDSTYYADSVKGRFTISRDNAKNTVNLQMNSLKPEDTAVYYCAASYSRFVDWIGDPGYDYWGQGTQVTVSS,low polyreactivity
10,QVQLVESGGGLVQAGGSLRLSCAASGRTLFGNAMGWYRQAPAKERELVAAISRRGGSTSYADSVKGRFTISRDNAKNTVYLQMNSLKPEDTAVYYCASAQGKYTGTHYPYDYWGQGTQVTVSS,low polyreactivity
11,QVQLVESGGGLVQAGGSLRLSCAASGRTLFGNAMGWYRQAPGKERELVAAISRRGGSTSYADSVKGRFTISRDNAKNTVYLQMNSLKPEDTAVYYCAAAQGKYTGTHYPYDYWGQGTQVTVSS,high polyreactivity
12,QVQLVESGGGLVQAGGSLRLSCAASGRTLGAYAMGWYRQAPGKERELVAAIRWSGSSTYYADSVKGRFTISRDNAKNTVYLQMNSLKPEDTAVYYCAAYWSRVLYGMNYWGQGTQVTVSS,high polyreactivity
13,QVQLVESGGGLVQAGGSLRLSCAASGRTLGGYAMGWYRQAPGKERELVASITARGGSTYYADSVKGRFTISRDNAKNTVYLQMNSLKPEDTAVYYCATYFARGYNSWGQGTQVTVSS,high polyreactivity
14,QVQLVESGGGLVQAGGSLRLSCAASGRTLGGYTMGWYRQAPGKERELVAAITTGGSTNYADSVKGRFTISRDNAKNTVYLQMNSLKPEDTAVYYCATDLVFDKRYWYDYWGQGTQVTVSS,low polyreactivity
15,QVQLVESGGGLVQAGGSLRLSCAASGRTLGIYAMGWYRQAPGTERELVAAITLSGSDTYYADSVKGRFTISRDNAKNTVDLQMNSLKPEDTAVYYCAAKTYGGYGKYGYWGQGTQVTVSS,low polyreactivity
